“Also recorded” adds a separate entry of the source.
T1: recombinant IL-3Rα ectodomain (Homo sapiens, UniProt P26951)
T1 construct: Immobilisation of recombinant IL-3Rα ectodomain (Sino Biologicals) was done until 761 RU; purchased Sino Biologicals
T1 sequence (P26951 19-305 limits assumed): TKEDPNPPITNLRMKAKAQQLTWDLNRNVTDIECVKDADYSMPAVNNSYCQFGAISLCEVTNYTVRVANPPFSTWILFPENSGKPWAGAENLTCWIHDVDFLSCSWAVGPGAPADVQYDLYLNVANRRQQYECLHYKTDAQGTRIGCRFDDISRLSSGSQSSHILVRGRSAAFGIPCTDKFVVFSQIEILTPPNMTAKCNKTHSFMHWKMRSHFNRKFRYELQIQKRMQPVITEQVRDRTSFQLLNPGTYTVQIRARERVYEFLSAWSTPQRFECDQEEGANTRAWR


Tests used:
[1] = molecular target: T2, recombinant human CD4 / HIV1 gp120 interaction (Homo sapiens, UniProt P01730); experiment: gp120 - CD4 competition ELISA; assay type: binding; conditions: 500 nM Nanobody
T2 construct: purchased Invitrogen
Method: Therefore a panel of CD4 Nanobodies was analysed for the capacity to block the interaction with the viral gp120 protein. Briefly, CD4 Nanobodies were analysed for the ability to compete with gp120 protein binding to recombinant CD4 in ELISA. Briefly, plates were coated with 20 ug/mL sheep anti-gp120 antibodies. lug/mL of HIV1 gp120 protein was captured for 1 hr at room temperature. Biotinylated recombinant human CD4 (Invitrogen) at 0.5 μg/mL was pre-incubated with 500 nM anti-CD4 Nanobodies, or control antibodies mouse anti-CD4 mAb B-A1 and F5 (Diaclone) and rabbit anti-CD4 pAb (ImmunoDiagnostic Inc) for 1hr, after which mixture was transferred to the coated plates and incubated for 1 hr. Detection of bound CD4 was done with Extravidin-peroxidase conjugate. […] Characteristics of Nanobody CD4 are found in Table 2.1.

cytotoxic CD8+ T cells = experiment: Binding to isolated CD8+ T cells (FACS); parameters: species or system human; conditions: Nanobodies at 250 nM
Method: The pool of activated T cells comprises both CD4+ T cells and CD8+ T cells. To confirm the specificity of the anti-CD4 Nanobody and to exclude binding to CD4-negative cells, binding was assessed to cytotoxic CD8+ T cells isolated from human PBMCs using the CD8+ T Cell Isolation Kit (Miltenyi Biotech, 130-096-495), resulting in 94% purity of CD8+ cells. Binding specificity experiments were carried out using Nanobodies at 250 nM. […] Similar data were obtained for the IL12Rβ2 and IL23R Nanobodies.

[2] = system: CD8+/CD4− gated and CD4+ gated T cells; experiment: Multi-colour FACS on TH1 activated T cells gated for CD8 or CD4; assay type: binding, human; conditions: donor D838; anti-flag-APC detection
Method: To elucidate if CD4-IL12R bispecific polypeptides preferentially bind to the CD4+/IL12R+ TH1 cell subset within the pool of T cells, Nanobody binding was analysed to a pool of activated T cells gated for either CD8 (detected by Anti-hu CD8 PE-Cy7 conjugated monoclonal antibody (BD 557746) or CD4 (detected by Anti-hu CD4 alexa Fluor 488-conjugated polyclonal antibody (R&D FAB8165G) in a multi-colour FACS experiment. Nanobody binding to the CD8+/CD4− gated cells and to CD4+ gated cells was determined using anti-flag-APC (Prozyme PJ255) detection. In this experiment TH1 activated T cells from the same donor (D838) as shown in FIG. 3.6 were used.

[3] = molecular target: T3, CXCR4 on Caki-CXCR4 cells (Homo sapiens, UniProt P61073); experiment: Biotinylated SDF-1 displacement on Caki-CXCR4 cells (flow cytometry); assay type: binding; conditions: 30 nM biotinylated SDF-1; read-out: Ligand competition Biotin-SDF-1 IC50
T3 construct: expressed in transfected cells; host or cells: Caki-CXCR4
Method: CXCR4 Nanobodies were analysed for their ability to compete with the ligand CXCL12 (or SDF-1a) for receptor binding, by displacement of biotinylated SDF-1 on Caki-CXCR4 cells in flow cytometry. To this end serial dilutions of Nanobodies were incubated with 30 nM of biotinylated SDF-1 (R&D Systems Fluorokine kit) on cells, after which ligand binding was visualised using extravidin-PE. The biotin-SDF-1 competitor concentration used in this assay was below the EC50 value obtained in dose-titration, where IC50 values should reflect the Ki.

[4] = molecular target: T4, CXCR4 (membrane extracts of Hek-CXCR4 cells) (Homo sapiens, UniProt P61073); experiment: [125I]-CXCL12 radio-ligand displacement on membrane extracts of Hek-CXCR4 cells; assay type: binding
T4 construct: expressed in transfected cells; host or cells: Hek293 (membrane extracts)
Method: CXCR4 Nanobodies were analysed in radio-ligand displacement assay on membrane extracts of Hek-CXCR4 cells. The advantage of using the radiolabelled ligand is the increased sensitivity, and the low competitor concentration ensures the determination of Ki values (i.e. the real affinity constant) instead of measuring the IC50 value. This makes it possible to accurately determine the potencies of low affine Nanobodies, even though they may not reach full displacement.
Non-specific binding was determined in presence of 100 nM cold SDF-1. As controls full blocking CXCR4 Nanobodies 238D4 and 281A6 were included. The assay was performed three times, and average percentages of SDF-1 inhibition were calculated.

[5] = molecular target: T5, CXCR4 on Jurkat E6-1 cells (Homo sapiens, UniProt P61073); experiment: CXCL12/SDF-1a induced chemotaxis of Jurkat E6-1 cells; assay type: cell-based; conditions: monovalent CXCR4 Nanobodies, Table 4; read-out: Chemotaxis Jurkat IC50
T5 construct: endogenous in cells; host or cells: Jurkat E6-1
Method: To verify if bispecific CXCR4-IL3Ra polypeptides show increased affinity and potency on cells expressing both receptors, a CXCR4-dependent functional assay was carried out. To this end SDF-1a dependent chemotaxis on Jurkat E6-1 (CXCR4+/IL3Ra−), and MOLM-13 cells (CXCR4+/IL3Ra+) was performed for direct comparison of cells expressing both or only one receptor. Since the functional blockade is only mediated via CXCR4, avidity by the simultaneous binding of the anti-IL3Ra Nanobody® is expected to translate into increased potency in inhibition of chemotaxis.
Bispecific polypeptides were analyzed for inhibition of CXCL12-induced chemotaxis on cells endogenously expressing CXCR4. As chemoattractant a concentration of 750 pM SDF-1a was used on 100,000 cells/well for the Jurkat cell line, and 500,000 cells/well for the MOLM-13 cell line. On each plate the corresponding monovalent CXCR4 Nanobody was included as reference, allowing to calculate the fold increase of the bispecific within each plate. As additional control 1:1 mixtures of monovalent Nanobodies were included. In Table 9 the respective IC50 values are shown (average of n=3 experiments).
To verify if bispecific CXCR4-IL-3Ra polypeptides show increased affinity and potency on cells expressing both receptors, a CXCR4-dependent functional assay was done. Since MOLM-13 cells express CD4 in conjunction with CXCR4 and CD123, the same experimental set-up was used as described for the CXCR4-CD123 bispecific Nanobodies (see: Example 1.5.5).
Dose-dependent inhibition of CXCL12-induced chemotaxis by the panel of bispecific CD4-CXCR4 Nanobodies was determined on Jurkat (CXCR4+/CD4 low), and Molm-13 cells (CXCR4++/CD4++). As reference anti-CXCR4 antibody 12G5 was included on each plate. […] Remarkably, bispecific constructs in the inverse orientation were able to block CXCR4 function, despite their reduced affinity for CXCR4 due to the unfavourable position, although the blockade was partial. The much larger potency increases observed with Nanobodies targeting the CD4 and CXCR4 combination is most likely related to the higher relative expression levels of CD4 compared to CD123 on the Molm-13 cells.

[6] = molecular target: T3, CXCR4 on Caki-CXCR4 cells; experiment: Binding of CXCR4 Nanobodies to Caki-CXCR4 cells
[7] = molecular target: T1, recombinant IL-3Rα ectodomain; experiment: SPR (ProteOn) on recombinant IL-3Rα ectodomain; assay type: binding
Method: The affinities of CD123 specific Nanobodies were further investigated via Surface Plasmon Resonance (SPR) at ProteOn. Immobilisation of recombinant IL-3Rα ectodomain (Sino Biologicals) was done until 761 RU. The Nanobodies were applied at a highest concentration of 1 μM, followed by a three-fold titration, covering 5 further concentrations ranging from 1 μM to 4.1 nM. These were then applied in a single injection cycle, utilising the ProteOn's specific one-shot kinetics approach for kinetic analysis. Evaluation of the association/dissociation data was performed by fitting a 1:1 interaction model (Langmuir binding model). […] For CD123 Nanobodies the obtained KD values correlated well with the apparent affinities retrieved by cell binding EC50 values (see Table 3).

HEK293T-wt cells = experiment: FACS binding to non-transfected HEK293T-wt cells (specificity); parameters: species or system human; conditions: data not shown
Method: Nanobody binding to membrane associated human IL-3Rα was analysed on HEK293T cells transfected with pcDNA3.1-IL3Rα (NM_002183.2) and non-transfected cells. Surface expression was confirmed by FACS using IL-3Rα specific antibodies (R&D MAB301 and BD Pharminogen 554528), followed by goat anti-mouse PE (Jackson Immuno Research 115-115-164). Briefly, serial dilutions of Nanobodies were allowed to associate for 30 minutes at 4° C. in FACS buffer (PBS 1×+10% FBS+0.05% azide). Following this, cells were washed by centrifugation and probed with 6.7 nM anti-FLAG for 30 minutes at 4° C., to detect bound Nanobody. Detection was done with […] for 30 minutes at 4° C. Cells were washed and incubated with TOPRO3 to stain for dead cells, which are then removed during the gating procedure. The cells were then analysed via a BD FACSArray. The results are depicted in FIG. 1.2.

[8] = molecular target: T6, human IL12Rβ1 extracellular domain Fc-fusion (Homo sapiens, UniProt P42701); experiment: SPR (Biacore T100) on IL12Rβ1-Fc; assay type: binding
T6 construct: Fc-fusions of human IL12Rβ1, IL12Rβ2 and IL-23R extracellular domains; purchased R&D Systems #839-B1
Method: The precise binding affinities of the purified Nanobodies were determined in a multi-cycle kinetic analysis using Surface Plasmon Resonance analysis (Biacore T100) on Fc-fusions of human IL12Rβ1, IL12Rβ2 and IL-23R extracellular domains (R&D Systems, #839-B1, #1959-B2, #1400-IR). Sensorchips CM5 were immobilized with anti-hIgG antibody (GE Healthcare, BR-1008-39), after which receptors were captured at 5 μg/ml protein and contact time of 120 seconds. Running buffer used was HBS-EP+ (GE Healthcare, BR-1006-69) at 25° C., with a flow-rate of […]. For immobilization by amine coupling, EDC/NHS was used for activation and ethanolamine HCl for deactivation (Biacore, amine coupling kit). Nanobodies were evaluated at a concentration range between 1.37 nM and 3 μM. Nanobodies were allowed to associate for 2 min and to dissociate for 15 min at a flow rate of […]. In between injections, the surfaces were regenerated with a 3 min pulse of 3M MgCl2 and 2 min stabilization period. Evaluation of the association/dissociation data was performed by fitting a 1:1 interaction model (Langmuir binding model) by Biacore TWO software v2.0.3.

T3 sequence (P61073 whole entry): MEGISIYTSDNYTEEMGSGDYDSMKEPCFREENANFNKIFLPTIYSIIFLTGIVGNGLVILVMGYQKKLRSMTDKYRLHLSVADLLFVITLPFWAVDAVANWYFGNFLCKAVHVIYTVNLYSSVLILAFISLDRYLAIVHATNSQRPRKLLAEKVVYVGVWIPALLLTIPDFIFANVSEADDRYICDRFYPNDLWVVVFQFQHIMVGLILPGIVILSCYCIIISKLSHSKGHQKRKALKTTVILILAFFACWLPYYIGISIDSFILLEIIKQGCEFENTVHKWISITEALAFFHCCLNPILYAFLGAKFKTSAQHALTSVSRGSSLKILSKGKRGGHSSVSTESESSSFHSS
T4 sequence (P61073 whole entry): as above
T5 sequence (P61073 whole entry): as above

Row | Molecule | binding to isolated CD8+ T cells (cytotoxic CD8+ T cells) | binding to CD4+ gated and CD8+ gated T cells [2] | SPR - IL-3Ra ka [7] [M⁻¹ s⁻¹] | SPR - IL-3Ra kd [7] [s⁻¹] | binding to HEK293T-wt cells (HEK293T-wt cells) | also measured
1 | CD4#8: anti-CD4 Nanobody, SEQ ID NO: 25 (protein) VHH: EVQLVESGGGSVQPGGSLTLSCGTSGRTFNVMGWFRQAPGKEREFVAAVRWSSTGIYYTQYADSVKSRFTISRDNAKNTVYLEMNSLKPEDTAVYYCAADTYNSNPARWDGYDFRGQGTQVTVSS | No binding | strong binding to the CD4+ gated population; also recorded: only a low signal was observed to the CD8+ population | – | – | – | inhibition of gp120 - CD4 interaction [1]: inhibit the interaction with gp120
2 | 238D4: full blocking control CXCR4 Nanobody (protein) VHH: EVQLMESGGGLVQAGGSLRLSCAASGRTFNNYAMGWFRRAPGKEREFVAAITRSGVRSGVSAIYGDSVKDRFTISRDNAKNTLYLQMNSLKPEDTAVYTCAASAIGSGALRRFEYDYSGQGTQVTVSS | – | – | – | – | – | IC50 [3]: 2.1 nM; efficacy of SDF-1 displacement ([4]; radio-ligand displacement): full efficacy; Ki ([4]; read-out: Ligand competition [125I]-SDF-1 Ki, 75 pM [125I]-CXCL12): 5.4 nM; IC50 [5]: 7.6 nM; EC50 [6]: 3.4 nM
3 | CD123#1: anti-IL-3Ra (CD123) Nanobody, SEQ ID NO: 15 (protein) VHH: EVQLVESGGGLVQAGGSLRLSCAASGSIFSGNVMGWYRRQAPGKEREWVAAIASGGSIYYRDSVKGRFTISRDNAKNTVYLQMNSLKPEDTAVYYCNSHPPTLPYWGLGTQVTVSS | – | – | 1e+06 | 0.00081 | lack of binding | –
4 | CD123#2: anti-IL-3Ra (CD123) Nanobody, SEQ ID NO: 14 (protein) VHH: EVQLVESGGGSVQAGGSLRLSCTTSGRALNMYVMGWFRQAPGNEREFVAATSSSGGSTSYPDSVKGRFTISRDNAKNTVYLQMNSLKPEDTAAYRCAASPYVSTPTMNILEEYRYWGLGTQVTVSS | – | – | 84000 | 0.0014 | lack of binding | –
5 | IL12Rb1#30: IL-12Rβ1 specific ligand competing Nanobody (protein) VHH: EVQLVESGGGLVQTGGSLRLSCAASGRTPRLVAMGWFRQTPGKEREFVGEIILSKGFTYYADSVKGRFTISRVNAKNTITMYLQMNSLKSEDTAVYYCAGRQNWSGSPARTNEYEYWGQGTLVTVSS | did bind | low fluorescence signals to both CD4+ and CD8+ cells | – | – | – | Binding kinetics (SPR) ka (1/Ms), IL12Rβ1 [8]: 450000 M⁻¹ s⁻¹; Binding kinetics (SPR) kd (1/s), IL12Rβ1 [8]: 0.0015 s⁻¹

— US20220242958A1, “BISPECIFIC NANOBODIES” (Ablynx N.V., priority 2013, published 2022)
